Measurements: patent US20050158838

Tests used:
[1] = molecular target: T1, GNYTDRYFI test peptide
T1 chain: GNYTDRYFI

[2] = molecular target: T2, GDDDDK-β naphthylamine
T2 chain: GDDDDK

[3] = molecular target: T3, phage isolate 5-H11 display polypeptide ((Asp)4-Lys-containing recognition sequence)
T3 chain: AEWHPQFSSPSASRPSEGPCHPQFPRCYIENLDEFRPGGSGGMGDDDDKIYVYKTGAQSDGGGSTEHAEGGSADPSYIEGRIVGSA

[4] = molecular target: T4, phage isolate 5-B05 display polypeptide
T4 chain: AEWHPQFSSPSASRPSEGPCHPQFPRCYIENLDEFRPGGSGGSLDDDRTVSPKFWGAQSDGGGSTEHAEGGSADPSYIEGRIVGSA

[5] = molecular target: T5, phage isolate 5-H04 display polypeptide
T5 chain: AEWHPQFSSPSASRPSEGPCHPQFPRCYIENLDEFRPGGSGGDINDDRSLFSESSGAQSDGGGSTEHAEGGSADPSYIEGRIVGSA

[6] = molecular target: T6, GDDDDKIYV (positive control test peptide)
T6 chain: GDDDDKIYV

[7] = molecular target: T7, GNYTDRRFI test peptide
T7 chain: GNYTDRRFI

[8] = molecular target: T8, GNYTDRMFI test peptide
T8 chain: GNYTDRMFI

[9] = molecular target: T9, AVLSNVMFI (negative control test peptide)
T9 chain: AVLSNVMFI

[10] = molecular target: T10, phage isolate 5-A08 display polypeptide
T10 chain: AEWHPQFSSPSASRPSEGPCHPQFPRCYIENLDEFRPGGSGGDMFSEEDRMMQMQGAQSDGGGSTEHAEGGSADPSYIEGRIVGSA

[11] = molecular target: T11, DINDDRSLF test peptide
T11 chain: DINDDRSLF

[12] = molecular target: T12, NKAKDRMFI test peptide
T12 chain: NKAKDRMFI

B1: recombinant light chain enterokinase (Novagen, Madison, Wis.) (protein)
chain: IVGGSDSREGAWPWVVALYFDDQQVCGASLVSRDWLVSAAHCVYGRNMEPSKWKAVLGLHMASNLTSPQIETRLIDQIVINPHYNKRRKNNDIAMMHLEMKVNYTDYIQPICLPEENQVFPPGRICSIAGWGALIYQGSTADVLQEADVPLLSNEKCQQQMPEYNITENMVCAGYEAGGVDSCQGDSGGPLMCQENNRWLLAGVTSFGYQCALPNRPGVYARVPRFTEWIQSFLH
For B1, the Cleavage Rate [1] was 0.24 nmol/min, the “cleavage by 20U recombinant light chain enterokinase, 36-48 hrs, HPLC” value (shortened to “cleavage … HPLC”) [1] was “all digestions were carried to completion (except for the negative control which was not cleaved at all)” and the rate relative to standard substrate (fold of standard substrate) [1] was 0.5. The rate relative to standard substrate (fold of standard substrate) [2] was 1, the “enterokinase cleavage rate, phage ELISA (release of streptavidin-bound phage at 30 nM or 130 nM enterokinase)” value [3] was “the cleavage rate for the (Asp)4-Lys-containing recognition sequence 5-H11 (SEQ ID NO:194) was slower than for at least three of the other isolates” and the “enterokinase cleavage rate, phage ELISA (release of streptavidin-bound phage at 30 nM or 130 nM enterokinase)” value [4] was “the cleavage rate for ... 5-H11 (SEQ ID NO:194) was slower than for at least three of the other isolates, i.e., 5-A08 (SEQ ID NO:137), 5-B05 (SEQ ID NO:145) and 5-H04 (SEQ ID NO:188)”. The “enterokinase cleavage rate, phage ELISA (release of streptavidin-bound phage at 30 nM or 130 nM enterokinase)” value [5] was “isolate 5-H04 (SEQ ID NO:188) shown in Table 5 was the most readily cut”, the “cleavage … HPLC” value [6] was “all digestions were carried to completion (except for the negative control which was not cleaved at all)” and the rate relative to standard substrate (fold of standard substrate) [6] was 0.7. For the same protein, the ratio (Va/Vb) against reference peptide GDDDDK-βNA, equal to the ratio of kcat/Km [6] was 1, the Cleavage Rate [7] was 0.18 nmol/min and the “cleavage … HPLC” value [7] was “all digestions were carried to completion (except for the negative control which was not cleaved at all)”. For the same protein, the rate relative to standard substrate (fold of standard substrate) [7] was 0.4, the Cleavage Rate [8] was 0.81 nmol/min and the “cleavage … HPLC” value [8] was “all digestions were carried to completion (except for the negative control which was not cleaved at all)”. The rate relative to standard substrate (fold of standard substrate) [8] was 1.8, the ratio (Va/Vb) against reference peptide GDDDDK-βNA, equal to the ratio of kcat/Km [8] was 3.5 and the “cleavage … HPLC” value [9] was “No cleavage occurred with the negative control peptide (SEQ ID NO:198)”. The “enterokinase cleavage rate, phage ELISA (release of streptavidin-bound phage at 30 nM or 130 nM enterokinase)” value [10] was “the cleavage rate for ... 5-H11 (SEQ ID NO:194) was slower than for at least three of the other isolates, i.e., 5-A08 (SEQ ID NO:137), 5-B05 (SEQ ID NO:145) and 5-H04 (SEQ ID NO:188)”, the Cleavage Rate [11] was 1.43 nmol/min and the “cleavage … HPLC” value [11] was “all digestions were carried to completion (except for the negative control which was not cleaved at all)”. For the same protein, the rate relative to standard substrate (fold of standard substrate) [11] was 3.1, the ratio (Va/Vb) against reference peptide GDDDDK-βNA, equal to the ratio of kcat/Km [11] was 30 and the Cleavage Rate [12] was 0.26 nmol/min. For the same protein, the “cleavage … HPLC” value [12] was “all digestions were carried to completion (except for the negative control which was not cleaved at all)” and the rate relative to standard substrate (fold of standard substrate) [12] was 0.6.
